Measurements published in paper PMC2756588.

T1: Cdc25, P04821
T1 sequence (P04821 50-136, looked up): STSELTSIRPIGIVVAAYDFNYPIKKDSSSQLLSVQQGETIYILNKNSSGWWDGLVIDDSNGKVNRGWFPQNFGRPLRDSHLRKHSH

T2: Cyk3, Q07533
T2 sequence (Q07533 1-83, looked up): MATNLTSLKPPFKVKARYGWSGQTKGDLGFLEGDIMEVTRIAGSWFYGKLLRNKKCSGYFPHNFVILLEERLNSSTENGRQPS

T3: Hse1, P38753
T3 sequence (P38753 208-285, looked up): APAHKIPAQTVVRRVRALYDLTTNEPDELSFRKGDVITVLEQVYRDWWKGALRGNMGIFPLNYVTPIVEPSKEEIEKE

T4: Nbp2, Q12163
T4 sequence (Q12163 103-180, looked up): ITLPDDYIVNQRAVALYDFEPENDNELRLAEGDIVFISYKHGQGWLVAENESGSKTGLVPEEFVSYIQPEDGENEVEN

T5: Hof1, Q05080
T5 sequence (Q05080 590-669, looked up): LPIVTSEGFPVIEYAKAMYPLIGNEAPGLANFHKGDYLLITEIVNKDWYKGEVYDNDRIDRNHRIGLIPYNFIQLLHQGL

T6: Pex13, P80667
T6 sequence (P80667 295-386, looked up): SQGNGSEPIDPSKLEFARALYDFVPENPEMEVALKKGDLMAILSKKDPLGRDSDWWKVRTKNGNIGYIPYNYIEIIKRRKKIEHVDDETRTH

T7: Lsb1, P53281
T7 sequence (P53281 45-122, looked up): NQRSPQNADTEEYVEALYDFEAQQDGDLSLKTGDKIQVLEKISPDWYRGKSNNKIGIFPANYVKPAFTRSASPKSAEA

T8: Bzz1-2, P38822
T8 sequence (P38822 568-633, looked up): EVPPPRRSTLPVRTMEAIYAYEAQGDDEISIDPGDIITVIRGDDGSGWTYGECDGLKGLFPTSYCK

T9: Sla1-2, P32790
T9 sequence (P32790 60-140, looked up): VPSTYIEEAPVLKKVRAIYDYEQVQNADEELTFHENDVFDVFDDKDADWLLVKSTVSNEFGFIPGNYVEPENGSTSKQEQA

T10: Boi1, P38041
T10 sequence (P38041 1-86, looked up): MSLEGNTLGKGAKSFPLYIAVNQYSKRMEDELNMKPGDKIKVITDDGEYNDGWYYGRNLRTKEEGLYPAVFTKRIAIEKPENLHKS

T11: Myo5, Q04439
T11 sequence (Q04439 1072-1160, looked up): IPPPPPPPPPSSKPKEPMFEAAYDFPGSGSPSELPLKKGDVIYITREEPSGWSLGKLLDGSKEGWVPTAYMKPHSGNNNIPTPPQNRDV

T12: Bud14, P27637
T12 sequence (P27637 247-328, looked up): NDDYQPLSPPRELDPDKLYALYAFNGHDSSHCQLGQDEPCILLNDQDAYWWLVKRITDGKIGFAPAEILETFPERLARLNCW

T13: Sla1-3, P32790
T13 sequence (P32790 344-424, looked up): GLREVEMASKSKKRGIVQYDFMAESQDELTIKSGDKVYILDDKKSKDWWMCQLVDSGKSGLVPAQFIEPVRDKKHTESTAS

T14: Bzz1-1, P38822
T14 sequence (P38822 478-572, looked up): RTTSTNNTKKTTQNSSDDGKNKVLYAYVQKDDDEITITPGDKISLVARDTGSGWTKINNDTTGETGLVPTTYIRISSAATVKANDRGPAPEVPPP

T15: Boi2, P39969
T15 sequence (P39969 32-116, looked up): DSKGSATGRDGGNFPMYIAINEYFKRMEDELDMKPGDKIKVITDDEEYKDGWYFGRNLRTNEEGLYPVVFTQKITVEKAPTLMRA

T16: Fus1, P11710
T16 sequence (P11710 432-512, looked up): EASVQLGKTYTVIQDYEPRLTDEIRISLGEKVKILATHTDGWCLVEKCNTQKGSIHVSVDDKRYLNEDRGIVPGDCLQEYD

T17: Abp1, P15891
T17 sequence (P15891 535-592, looked up): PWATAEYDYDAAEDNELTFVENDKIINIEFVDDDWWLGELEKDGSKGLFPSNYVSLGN

T18: Lsb4, P32793
T18 sequence (P32793 402-468, looked up): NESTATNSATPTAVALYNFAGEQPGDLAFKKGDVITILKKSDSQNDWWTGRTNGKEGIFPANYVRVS

T19: Pin3, Q06449
T19 sequence (Q06449 53-122, looked up): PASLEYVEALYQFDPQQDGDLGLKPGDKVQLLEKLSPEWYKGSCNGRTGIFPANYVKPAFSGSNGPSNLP

T20: Lsb3, P43603
T20 sequence (P43603 385-451, looked up): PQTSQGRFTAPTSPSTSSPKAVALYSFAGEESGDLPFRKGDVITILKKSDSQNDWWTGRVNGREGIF

T21: Bbc1, P47068
T21 sequence (P47068 1-78, looked up): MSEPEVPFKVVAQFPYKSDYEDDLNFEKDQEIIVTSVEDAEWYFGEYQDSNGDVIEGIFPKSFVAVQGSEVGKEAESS

B1: unnamed (peptide)
chain: ITHRLRISIPGITGR
B2: unnamed (peptide)
chain: VLRFLGFPLPIFEKG
B3: unnamed (peptide)
chain: LLLLFVPDSPYDPAI

Key:
Experiment in all cases: SPOT array
Cdc25, P04821 = target: T1, Cdc25, P04821; details: median of control spots 969
Bem1-1, P29366 = details: median of control spots 4282
Bem1-1, P29366, sequence (P29366 55-141): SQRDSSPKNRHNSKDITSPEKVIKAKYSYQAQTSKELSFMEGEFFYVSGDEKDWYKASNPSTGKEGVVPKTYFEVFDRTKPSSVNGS

Cyk3, Q07533 = target: T2, Cyk3, Q07533; details: median of control spots 1451
Hse1, P38753 = target: T3, Hse1, P38753; details: median of control spots 1727
Nbp2, Q12163 = target: T4, Nbp2, Q12163; details: median of control spots 357
Sho1, P40073 = details: median of control spots 1148
Sho1, P40073, sequence (P40073 287-367): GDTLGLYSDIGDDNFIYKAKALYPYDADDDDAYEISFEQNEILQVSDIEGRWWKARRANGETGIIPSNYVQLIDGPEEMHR

GST = details: median of control spots 978
Bem1-2, P29366 = details: median of control spots 4347
Bem1-2, P29366, sequence (P29366 139-227): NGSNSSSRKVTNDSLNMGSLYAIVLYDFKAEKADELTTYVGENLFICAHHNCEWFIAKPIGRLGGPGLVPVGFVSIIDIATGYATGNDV

Myo3, P36006 = details: median of control spots 468
Hof1, Q05080 = target: T5, Hof1, Q05080; details: median of control spots 4086
Pex13, P80667 = target: T6, Pex13, P80667; details: median of control spots 1341
Lsb1, P53281 = target: T7, Lsb1, P53281; details: median of control spots 388
Rvs167, P39743 = details: median of control spots 2707
Rvs167, P39743, sequence (P39743 419-482): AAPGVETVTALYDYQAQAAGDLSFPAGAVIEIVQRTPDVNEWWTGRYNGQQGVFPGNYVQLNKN

Bzz1-2, P38822 = target: T8, Bzz1-2, P38822; details: median of control spots 4538
Sla1-2, P32790 = target: T9, Sla1-2, P32790; details: median of control spots 712
Boi1, P38041 = target: T10, Boi1, P38041; details: median of control spots 1162
Myo5, Q04439 = target: T11, Myo5, Q04439; details: median of control spots 471
Bud14, P27637 = target: T12, Bud14, P27637; details: median of control spots 956
Sla1-3, P32790 = target: T13, Sla1-3, P32790; details: median of control spots 5475
Bzz1-1, P38822 = target: T14, Bzz1-1, P38822; details: median of control spots 4446
Boi2, P39969 = target: T15, Boi2, P39969; details: median of control spots 1161
Fus1, P11710 = target: T16, Fus1, P11710; details: median of control spots 1200
Abp1, P15891 = target: T17, Abp1, P15891; details: median of control spots 935
Lsb4, P32793 = target: T18, Lsb4, P32793; details: median of control spots 397
Pin3, Q06449 = target: T19, Pin3, Q06449; details: median of control spots 2171
Lsb3, P43603 = target: T20, Lsb3, P43603; details: median of control spots 406
Bbc1, P47068 = target: T21, Bbc1, P47068; details: median of control spots 796

Binder	SPOT intensity (Cdc25, P04821)	SPOT intensity (Bem1-1, P29366)	SPOT intensity (Cyk3, Q07533)	SPOT intensity (Hse1, P38753)	SPOT intensity (Nbp2, Q12163)	SPOT intensity (Sho1, P40073)	SPOT intensity (GST)	SPOT intensity (Bem1-2, P29366)	SPOT intensity (Myo3, P36006)	SPOT intensity (Hof1, Q05080)	SPOT intensity (Pex13, P80667)	SPOT intensity (Lsb1, P53281)	SPOT intensity (Rvs167, P39743)	SPOT intensity (Bzz1-2, P38822)	SPOT intensity (Sla1-2, P32790)	SPOT intensity (Boi1, P38041)	SPOT intensity (Myo5, Q04439)	SPOT intensity (Bud14, P27637)	SPOT intensity (Sla1-3, P32790)	SPOT intensity (Bzz1-1, P38822)	other results
B1	29	0	0	11	32	191	0	6	37	1	32	231	0	0	4	1	4	8	2	1	SPOT intensity (Boi2, P39969): 1; SPOT intensity (Fus1, P11710): 39; SPOT intensity (Abp1, P15891): 118; SPOT intensity (Lsb4, P32793): 5; SPOT intensity (Pin3, Q06449): 69; SPOT intensity (Lsb3, P43603): 9; SPOT intensity (Bbc1, P47068): 24
B2	28	0	7	6	41	43	0	2	1	4	4	0	0	0	0	1	0	17	0	0	SPOT intensity (Boi2, P39969): 1; SPOT intensity (Fus1, P11710): 78; SPOT intensity (Abp1, P15891): 19; SPOT intensity (Lsb4, P32793): 0; SPOT intensity (Pin3, Q06449): 3; SPOT intensity (Lsb3, P43603): 0; SPOT intensity (Bbc1, P47068): 30
B3	0	0	0	0	1	0	1	0	0	0	0	0	0	0	0	1	0	3	2	0	SPOT intensity (Boi2, P39969): 0; SPOT intensity (Fus1, P11710): 1; SPOT intensity (Abp1, P15891): 0; SPOT intensity (Lsb4, P32793): 0; SPOT intensity (Pin3, Q06449): 0; SPOT intensity (Lsb3, P43603): 0; SPOT intensity (Bbc1, P47068): 0
